Results taken from patent US20120094909A1 (Bristol-Myers Squibb, published 2012).
Blank lines part the entries; values can stand above or below the binder they belong to.

Legend:
human serum albumin [1] = molecular target: T1, human serum albumin (human, UniProt P02768 25-609); assay: kinetic analysis, HBS-P buffer
T1 construct: also called HSA
T1 sequence (P02768 25-609 limits assumed): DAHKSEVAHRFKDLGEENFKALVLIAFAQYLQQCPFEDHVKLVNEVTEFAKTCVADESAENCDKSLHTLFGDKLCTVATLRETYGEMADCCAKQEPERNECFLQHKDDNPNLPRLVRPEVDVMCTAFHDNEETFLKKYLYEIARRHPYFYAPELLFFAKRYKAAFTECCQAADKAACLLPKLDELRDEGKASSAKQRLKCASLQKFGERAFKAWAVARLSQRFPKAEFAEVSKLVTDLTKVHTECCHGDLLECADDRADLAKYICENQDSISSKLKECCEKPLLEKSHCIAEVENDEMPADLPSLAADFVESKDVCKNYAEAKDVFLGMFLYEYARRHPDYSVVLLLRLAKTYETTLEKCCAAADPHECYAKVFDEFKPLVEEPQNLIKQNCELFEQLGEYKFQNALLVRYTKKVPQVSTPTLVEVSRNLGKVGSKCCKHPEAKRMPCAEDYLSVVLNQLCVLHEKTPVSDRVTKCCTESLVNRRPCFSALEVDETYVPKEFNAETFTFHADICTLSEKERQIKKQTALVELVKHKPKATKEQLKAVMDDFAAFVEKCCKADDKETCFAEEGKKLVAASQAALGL

rhesus serum albumin [2] = molecular target: T2, rhesus serum albumin (rhesus, UniProt Q28522 17-600); assay: kinetic analysis, HBS-P buffer
T2 construct: also called RhSA
T2 sequence (Q28522 17-600 limits assumed): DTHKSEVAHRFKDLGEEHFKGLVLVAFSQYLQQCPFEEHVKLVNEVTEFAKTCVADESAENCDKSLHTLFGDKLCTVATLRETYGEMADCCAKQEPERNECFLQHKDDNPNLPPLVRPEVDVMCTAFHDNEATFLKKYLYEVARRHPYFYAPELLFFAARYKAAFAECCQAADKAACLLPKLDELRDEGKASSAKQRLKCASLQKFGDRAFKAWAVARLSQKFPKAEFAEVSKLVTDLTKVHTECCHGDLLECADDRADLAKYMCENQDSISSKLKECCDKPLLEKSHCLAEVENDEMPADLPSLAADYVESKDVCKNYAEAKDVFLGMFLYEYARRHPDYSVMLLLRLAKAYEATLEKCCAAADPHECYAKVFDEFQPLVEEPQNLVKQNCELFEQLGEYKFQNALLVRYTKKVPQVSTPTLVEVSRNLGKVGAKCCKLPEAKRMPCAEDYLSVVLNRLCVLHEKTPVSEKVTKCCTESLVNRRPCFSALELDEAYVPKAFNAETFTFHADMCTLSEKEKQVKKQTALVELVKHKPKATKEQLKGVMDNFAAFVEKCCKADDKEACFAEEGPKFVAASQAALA

murine serum albumin [3] = molecular target: T3, murine serum albumin (mouse, UniProt P07724 25-608); assay: kinetic analysis and direct binding ELISA (Table 18, FIG. 27)
T3 construct: also called MuSA; mouse serum albumin

rat serum albumin = rat serum albumin (rat, UniProt P02770 25-608); assay: as above
human serum albumin [4] = molecular target: T4, human serum albumin (human, UniProt P02768 25-609); assay: kinetic binding analysis in MES buffer, pH 5.5
T4 construct: also called HSA
T4 sequence (P02768 25-609 limits assumed): as the sequence (P02768 25-609 limits assumed) above

rhesus serum albumin [5] = molecular target: T5, rhesus serum albumin (rhesus, UniProt Q28522 17-600); assay: kinetic binding analysis in MES buffer, pH 5.5
T5 construct: also called RhSA
T5 sequence (Q28522 17-600 limits assumed): as the sequence (Q28522 17-600 limits assumed) above

human serum albumin [6] = molecular target: T4, human serum albumin; assay: kinetic binding analysis in MES buffer, pH 7.4
rhesus serum albumin [7] = molecular target: T5, rhesus serum albumin; assay: kinetic binding analysis in MES buffer, pH 7.4
human serum albumin [8] = molecular target: T4, human serum albumin; assay: kinetic binding analysis in HBS-P buffer, 25 °C
rhesus serum albumin [9] = molecular target: T5, rhesus serum albumin; assay: kinetic binding analysis in HBS-P buffer, 25 °C
murine serum albumin [10] = molecular target: T6, murine serum albumin (mouse, UniProt P07724 25-608); assay: kinetic binding analysis in HBS-P buffer, 25 °C
T6 construct: also called MuSA; Mouse

human serum albumin [11] = molecular target: T4, human serum albumin; assay: kinetic binding analysis in HBS-P buffer, 37 °C
rhesus serum albumin [12] = molecular target: T5, rhesus serum albumin; assay: kinetic binding analysis in HBS-P buffer, 37 °C
human serum albumin [13] = molecular target: T4, human serum albumin; assay: SPR (Biacore), albumin captured on chip, SABA in flow
Experimental: (§1) The kinetics of selected SABA clones purified from HTPP and/or midscaled material described in Examples 5A and 5B were determined by capturing the respective serum albumin (HSA/RhSA/MuSA) on the surface of a Biasensor CMS chip and flowing a concentration series of SABAs over both the reference flow cell and the captured albumins. In addition, binding to albumin was carried out under various pH conditions ranging from pH 5.5 to pH 7.4.

rhesus serum albumin [14] = molecular target: T5, rhesus serum albumin; assay: as above
Experimental: as §1

rhesus serum albumin [15] = molecular target: T5, rhesus serum albumin; assay: SPR (Biacore), albumin captured on chip, SABA in flow; n = 4
Experimental: as §1

human serum albumin [16] = molecular target: T4, human serum albumin; assay: SPR (Biacore), albumin captured on chip, SABA in flow; n = 9
Experimental: as §1

human serum albumin [17] = molecular target: T4, human serum albumin; assay: SPR (Biacore), albumin captured on chip, SABA in flow; n = 4
Experimental: as §1

Sequence of rat serum albumin (P02770 25-608 limits assumed): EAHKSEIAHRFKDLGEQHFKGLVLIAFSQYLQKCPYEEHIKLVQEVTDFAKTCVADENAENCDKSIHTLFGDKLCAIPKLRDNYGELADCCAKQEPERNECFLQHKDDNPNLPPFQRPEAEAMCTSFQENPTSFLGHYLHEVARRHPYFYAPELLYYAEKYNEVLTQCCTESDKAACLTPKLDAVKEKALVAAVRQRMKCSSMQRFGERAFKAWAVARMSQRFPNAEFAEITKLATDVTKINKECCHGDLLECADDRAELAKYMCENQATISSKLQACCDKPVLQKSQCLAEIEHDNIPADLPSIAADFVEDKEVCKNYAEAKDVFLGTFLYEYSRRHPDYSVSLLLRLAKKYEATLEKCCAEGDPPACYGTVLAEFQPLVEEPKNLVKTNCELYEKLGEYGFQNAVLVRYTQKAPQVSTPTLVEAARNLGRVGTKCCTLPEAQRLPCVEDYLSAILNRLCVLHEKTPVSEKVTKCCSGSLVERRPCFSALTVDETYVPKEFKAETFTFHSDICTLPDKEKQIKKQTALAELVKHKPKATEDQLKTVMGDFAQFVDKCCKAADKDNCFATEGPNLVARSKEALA

B1: SABA1.2 (designed binder)
chain: MGVSDVPRDLEVVAATPTSLLISWHSYYEQNSYYRITYGETGGNSPVQEFTVPYSQTTATISGLKPGVDYTITVYAVYGSKYYYPISINYRTEIEDEDEDEDED
notes: core 1 10Fn3 with (ED)5 extension
fold increase in affinity at 37 C against 25 C (human serum albumin [1]): ~2 fold
affinity at 37 C relative to 25 C (rhesus serum albumin [2]): 0.5 fold
binding result (murine serum albumin [3]): no binding (tested: up to 1 µM)
binding result (rat serum albumin): no binding (tested: up to 1 µM)

B3: SABA1.1 (designed binder)
chain: MGVSDVPRDLEVVAATPTSLLISWHSYYEQNSYYRITYGETGGNSPVQEFTVPYSQTTATISGLKPGVDYTITVYAVYGSKYYYPISINYRTEIDKPSQHHHHHH
notes: also called clone 1318H04
koff (human serum albumin [13]): 0.000457 s⁻¹
koff (rhesus serum albumin [14]): 0.00545 s⁻¹
Kd (rhesus serum albumin [15]): 778 nM
Kd (human serum albumin [16]): 47.2 nM

The next lines start with the values.

Kd (human serum albumin [4]): 28.6 nM
koff (human serum albumin [4]): 0.00027 s⁻¹
kon (human serum albumin [4]): 9440 M⁻¹ s⁻¹
Kd (rhesus serum albumin [5]): 359 nM
koff (rhesus serum albumin [5]): 0.00272 s⁻¹
kon (rhesus serum albumin [5]): 7570 M⁻¹ s⁻¹
Kd (human serum albumin [6]): 41.9 nM
koff (human serum albumin [6]): 0.000388 s⁻¹
kon (human serum albumin [6]): 9260 M⁻¹ s⁻¹
Kd (rhesus serum albumin [7]): 479 nM
koff (rhesus serum albumin [7]): 0.00295 s⁻¹
kon (rhesus serum albumin [7]): 6160 M⁻¹ s⁻¹
Kd (human serum albumin [8]): 55.3 nM
koff (human serum albumin [8]): 0.000443 s⁻¹
kon (human serum albumin [8]): 8210 M⁻¹ s⁻¹
Kd (rhesus serum albumin [9]): 580 nM
koff (rhesus serum albumin [9]): 0.00378 s⁻¹
kon (rhesus serum albumin [9]): 6600 M⁻¹ s⁻¹
binding result (murine serum albumin [10]): no binding (tested: up to 1 µM)
Kd (human serum albumin [11]): 24.1 nM
koff (human serum albumin [11]): 0.000815 s⁻¹
kon (human serum albumin [11]): 33800 M⁻¹ s⁻¹
Kd (rhesus serum albumin [12]): 977 nM
koff (rhesus serum albumin [12]): 0.0185 s⁻¹
kon (rhesus serum albumin [12]): 18900 M⁻¹ s⁻¹
B2: SABA1.2 (designed binder)
chain: MGVSDVPRDLEVVAATPTSLLISWHSYYEQNSYYRITYGETGGNSPVQEFTVPYSQTTATISGLKPGVDYTITVYAVYGSKYYYPISINYRTEIEDEDEDEDED
notes: It has no His tag; also called "core 1" 10Fn3 comprising an (ED)5 extension

koff (human serum albumin [13]): 0.000782 s⁻¹
Kd (rhesus serum albumin [14]): > 1000 nM
koff (rhesus serum albumin [14]): 0.00383 s⁻¹
Kd (human serum albumin [17]): 412 nM
B4: SABA4.1 (designed binder)
chain: MGVSDVPRDLEMVAATPTSLLISWEDDSYYSRYYRITYGETGGNSPVQEFTVPSDLYTATISGLKPGVDYTITVYAVTYDVTDLIMHEPISINYRTEIDKPSQHHHHHH
notes: Carries a scaffold mutation; SABA5 is the scaffold-perfect version
